Values of other authors as cited in PMC5466068.

Biological target: Cys32 (UniProt position 32, FSATWCGPCKM)
Assay: NMR
Conditions: not stated (a free thiol at the catalytic Cys implies the reduced form)

Thioredoxin-1 (Thrx-1) (Homo sapiens)
pKa: ~6.3
